{"source": "paper PMC9537309", "about": "“The solution structure of Dead End bound to AU-rich RNA reveals an unusual mode of tandem RRM-RNA recognition required for mRNA regulation”", "key": {"[1]": {"target": "T1, DND1 RRM2 (human, UniProt Q8IYX4 136-227)", "T1 sequence": "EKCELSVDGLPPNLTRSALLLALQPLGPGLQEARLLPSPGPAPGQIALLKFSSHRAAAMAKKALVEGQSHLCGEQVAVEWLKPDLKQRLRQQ", "experiment": "NMR titration; ITC: 100 mM potassium phosphate pH 6.6, 1 mM 2-mercaptoethanol, 25 C; NMR: 100 mM potassium phosphate pH 6.6, 1 mM DTT, 298 K (or 20 mM MES pH 6.6, 100 mM NaCl); Supplementary Fig. 3: 25 mM NaCl, 2 mM DTT, pH 6.3, 303 K", "conditions": "protein: recombinant; tags: N-terminal 6xHis, TEV-cleaved"}, "[2]": {"target": "T2, DND1 RRM12 (tandem RRMs) WT (human, UniProt Q8IYX4 12-235)", "T2 sequence": "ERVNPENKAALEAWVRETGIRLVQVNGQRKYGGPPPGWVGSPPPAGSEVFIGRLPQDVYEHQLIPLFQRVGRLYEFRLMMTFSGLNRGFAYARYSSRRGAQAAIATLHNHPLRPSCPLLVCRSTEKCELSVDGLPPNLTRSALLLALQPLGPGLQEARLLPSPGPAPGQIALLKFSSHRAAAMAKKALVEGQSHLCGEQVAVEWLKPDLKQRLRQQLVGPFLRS", "experiment": "NMR titration; highest affinity of the three oligos; ITC: 100 mM potassium phosphate pH 6.6, 1 mM 2-mercaptoethanol, 25 C; NMR: 100 mM potassium phosphate pH 6.6, 1 mM DTT, 298 K (or 20 mM MES pH 6.6, 100 mM NaCl); Supplementary Fig. 3: 25 mM NaCl, 2 mM DTT, pH 6.3, 303 K", "conditions": "protein: recombinant; tags: N-terminal 6xHis, TEV-cleaved"}, "[3]": {"target": "T3, DND1 extended RRM1 (human, UniProt Q8IYX4 12-139)", "T3 sequence": "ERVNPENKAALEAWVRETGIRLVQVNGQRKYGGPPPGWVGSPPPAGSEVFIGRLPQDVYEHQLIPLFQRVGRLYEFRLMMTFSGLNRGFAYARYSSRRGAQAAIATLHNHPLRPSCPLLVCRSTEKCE", "experiment": "NMR titration; ITC: 100 mM potassium phosphate pH 6.6, 1 mM 2-mercaptoethanol, 25 C; NMR: 100 mM potassium phosphate pH 6.6, 1 mM DTT, 298 K (or 20 mM MES pH 6.6, 100 mM NaCl); Supplementary Fig. 3: 25 mM NaCl, 2 mM DTT, pH 6.3, 303 K", "conditions": "protein: recombinant; tags: N-terminal 6xHis, TEV-cleaved"}, "[4]": {"target": "T2, DND1 RRM12 (tandem RRMs) WT", "experiment": "ITC; N = 1.04; text and Supplementary Table 2 print 0.68; ITC: 100 mM potassium phosphate pH 6.6, 1 mM 2-mercaptoethanol, 25 C; NMR: 100 mM potassium phosphate pH 6.6, 1 mM DTT, 298 K (or 20 mM MES pH 6.6, 100 mM NaCl); Supplementary Fig. 3: 25 mM NaCl, 2 mM DTT, pH 6.3, 303 K", "conditions": "protein: recombinant; tags: N-terminal 6xHis, TEV-cleaved; label: selective 13C-ribose in some structure samples; unlabeled in titrations"}, "[5]": {"target": "T4, DND1 RRM12 K197A (human, UniProt Q8IYX4 12-235, K197A)", "T4 sequence": "T2 sequence with K186A", "experiment": "ITC; N = 0.98; ITC: 100 mM potassium phosphate pH 6.6, 1 mM 2-mercaptoethanol, 25 C; NMR: 100 mM potassium phosphate pH 6.6, 1 mM DTT, 298 K (or 20 mM MES pH 6.6, 100 mM NaCl); Supplementary Fig. 3: 25 mM NaCl, 2 mM DTT, pH 6.3, 303 K", "conditions": "protein: recombinant; tags: N-terminal 6xHis, TEV-cleaved; label: selective 13C-ribose in some structure samples; unlabeled in titrations"}, "[6]": {"target": "T5, DND1 RRM12 T135A (human, UniProt Q8IYX4 12-235, T135A)", "T5 sequence": "T2 sequence with T124A", "experiment": "NMR titration; binding not reduced; ITC: 100 mM potassium phosphate pH 6.6, 1 mM 2-mercaptoethanol, 25 C; NMR: 100 mM potassium phosphate pH 6.6, 1 mM DTT, 298 K (or 20 mM MES pH 6.6, 100 mM NaCl); Supplementary Fig. 3: 25 mM NaCl, 2 mM DTT, pH 6.3, 303 K", "conditions": "protein: recombinant; tags: N-terminal 6xHis, TEV-cleaved; label: selective 13C-ribose in some structure samples; unlabeled in titrations"}, "[7]": {"target": "T6, DND1 RRM12 R98A (human, UniProt Q8IYX4 12-235, R98A)", "T6 sequence": "T2 sequence with R87A", "experiment": "NMR titration; ITC: 100 mM potassium phosphate pH 6.6, 1 mM 2-mercaptoethanol, 25 C; NMR: 100 mM potassium phosphate pH 6.6, 1 mM DTT, 298 K (or 20 mM MES pH 6.6, 100 mM NaCl); Supplementary Fig. 3: 25 mM NaCl, 2 mM DTT, pH 6.3, 303 K", "conditions": "protein: recombinant; tags: N-terminal 6xHis, TEV-cleaved; label: selective 13C-ribose in some structure samples; unlabeled in titrations"}, "[8]": {"target": "T7, DND1 RRM12 M90A (human, UniProt Q8IYX4 12-235, M90A)", "T7 sequence": "T2 sequence with M79A", "experiment": "NMR titration; ITC: 100 mM potassium phosphate pH 6.6, 1 mM 2-mercaptoethanol, 25 C; NMR: 100 mM potassium phosphate pH 6.6, 1 mM DTT, 298 K (or 20 mM MES pH 6.6, 100 mM NaCl); Supplementary Fig. 3: 25 mM NaCl, 2 mM DTT, pH 6.3, 303 K", "conditions": "protein: recombinant; tags: N-terminal 6xHis, TEV-cleaved; label: selective 13C-ribose in some structure samples; unlabeled in titrations"}}, "note": "Substitutions are numbered along the chain they refer to.", "data": [{"binder": "UUAUUU (ssRNA)", "values": [{"measurement": "binding result", "setting": "[1]", "value": "no binding"}, {"measurement": "binding result", "setting": "[2]", "value": "binds"}]}, {"binder": "UUUUUAC (ssRNA)", "values": [{"measurement": "binding result", "setting": "[1]", "value": "no binding"}, {"measurement": "binding result", "setting": "[3]", "value": "no binding"}]}, {"binder": "UUUUUCC (ssRNA)", "values": [{"measurement": "binding result", "setting": "[1]", "value": "no binding"}, {"measurement": "binding result", "setting": "[3]", "value": "no binding"}]}, {"binder": "CUUAUUUG (ssRNA)", "values": [{"measurement": "Kd", "setting": "[4]", "value": "0.69 ± 0.03", "unit": "µM"}, {"measurement": "Kd", "setting": "[5]", "value": "2.6 ± 0.1", "unit": "µM"}, {"measurement": "binding result", "setting": "[6]", "value": "binds"}, {"measurement": "binding result", "setting": "[7]", "value": "no binding"}, {"measurement": "binding result", "setting": "[8]", "value": "no binding"}]}]}
